B1: HDV Ribozyme (parent)
chain: GGCCGGCAUGGUCCCAGCCUCCUCGCUGGCGCCGGCUGGGCAACAUUCCGAGGGGACCGUCCCCUCGGUAAUGGCGAAUGGGACCCA

Self-cleavage data for 32 variants are collected here from the RNAGym collection of RNA variant scans (doi:10.7554/elife.80360).

In the data set the parent is B1. The experiment in a line: self-cleavage, relative activity (ratio to wild type); higher = more cleavage; co-transcriptional.
With GGCCGGCAUGGUCCCAGCCUCCUCGCUGGCGCCGGCCGGGCAACAUUCCGAGGGGACCGUCCCCUCGGUAAUGGCGACUGGGACCCA [U37C A78C], the self-cleavage is 0.196. As for GGCCGGCAUGGUCCCAGCCUCCUCGCUGGCGCCGGCUGGGCAACAGUCCGAGGGGACCGUCCUCUCGGUAAUGGCGAAUGGGACCCA [U46G C63U], the figure is 0.813. As for GGCCGGCAUGGUCCCAGCCUCCUCGCUGGCGCCAGCUGGGCAAGAUUCCGAGGGGACCGUCCCCUCGGUAAUGGCGAAUGGGACCCA [G34A C44G], the self-cleavage is 0.134. In the case of GGCCGGCAUGGUCCCAGCCUCCUCGCUGGCGCCGGCUGGGCAACAUUCCGAGGGGACCUUCCCCUCGGUAAUGGCGAAUGGGAACCA [G59U C84A], the self-cleavage was found to be 0.863.

GGCCGCCAUGGUCCCAGCCUCCUCGCUGGCGCCGGCUGGGCAACAUUCCGAGGGGACCGUCCCCUCGGUAACGGCGAAUGGGACCCA [G6C U72C]: the self-cleavage turned out to be 0.0831. Consider GGCCGGCAUGAUCCCAGCCUCCUCGCUGGCGCCGGCUGGGCAACAUUCCGAGGGGACCGUCCCCUCGGUAAUGGCGACUGGGACCCA [G11A A78C], for which the self-cleavage turned out to be 0.127. For GGCCGGCAUGGUCCCAGCCUCCUCGCUGGCACCGGCUGGGCAACAUUCCGAGGGGACCGUCCCCUCGGUAAUGGAGAAUGGGACCCA [G31A C75A], the self-cleavage is 0.136. For the variant GGCCGGCAUGGUCCCAGCCUCCUCGCCGGCGCCGGCUGGGCAACAUUCCGAGGGGACCGUCCCCUCGGUAAUGGCGAAUGGGACGCA [U27C C85G], the self-cleavage is 0.751.

Consider GGCCGGCAUUGUCCCAGCCUCCUCGCUGGCGCCGGCUGGGCAACAUUCCGAGGGGACCGUCCCCCCGGUAAUGGCGAAUGGGACCCA [G10U U65C], for which the self-cleavage amounted to 0.831. On to GGCCGGCUUGGUCCCAGCCUCCUCGCUGGCGCCGGCUGGGCAACAUUCCGAGGGGACCGUCCCCUCGGCAAUGGCGAAUGGGACCCA [A8U U69C], for which the self-cleavage came to 0.646. In the case of GGCCGACAUGGUCCCAGCCUCCUGGCUGGCGCCGGCUGGGCAACAUUCCGAGGGGACCGUCCCCUCGGUAAUGGCGAAUGGGACCCA [G6A C24G], the self-cleavage came to 0.108. As to GGCCGGCAUGGUCCCAGCCUCCUCGCUGGCGCCGGCUGGGCAACAUUCCGAGGGGGCCGUCCCGUCGGUAAUGGCGAAUGGGACCCA [A56G C64G], the self-cleavage was found to be 0.791. In the case of GGCCGGCAUGGUCCCAGACUCCUCGCUGGCGCCGGCUGGGCAACAUUCCGAGGGGACCGUCCCCUCGGUAAUGGCGAUUGGGACCCA [C18A A78U], the self-cleavage came to 0.128. Consider GGCCGGCAUGGUCCCAGCCGCCUCGCUGGCGCCGGCUGGGCAACAUUCCGAGGGGACCGUCCCCUCGGUAAUGGCGAAUGGGGCCCA [U20G A83G], for which the self-cleavage came to 0.16. GGCCGGCAUGGUCCCAGCCUCCUCGCUGGCGCCGGCUGUGCAACAUUCCGAGGGGACCGUCCCCUCGGUAAUGGCAAAUGGGACCCA [G39U G76A]: the self-cleavage turned out to be 0.67. Turning to GGCCGGCAUGGUACCAGCCUCCUCGCUGGCCCCGGCUGGGCAACAUUCCGAGGGGACCGUCCCCUCGGUAAUGGCGAAUGGGACCCA [C13A G31C], the self-cleavage was found to be 0. Regarding GGCCGGCAUGGUCCCAGCCUCCUCGCUGGCGCCGGCUGGGCAACAUUCCGAGGGGAUCGUCCCCUCGGUAAUGGCGAAUGGGAGCCA [C57U C84G], the self-cleavage was 0.673. For the variant GGCCGGCAUGGGCCCAGCCUCCUCGCUGGCGCCGGCUGGGCAACAUUCCGAGGGGACUGUCCCCUCGGUAAUGGCGAAUGGGACCCA [U12G C58U], the self-cleavage was determined as 0.751.

On to GGCCGGCAUGGUCCCAGCCUCCUCGCUGGAGCCGGCUGGGCAACAUUCCGAGGGGACCGUCCCCGCGGUAAUGGCGAAUGGGACCCA [C30A U65G], for which the self-cleavage was 0.441. Take GGCCGGCAUGGUCCCAGCCUCCUCGCUGGCGCCGGCUGGGCAACAUUCCAAGGGGACCGUCCCCUCGGUAAUGGCGAAUGGGAACCA [G50A C84A]: the self-cleavage was determined as 0.95. To GGCCGGCAUGCUCCCAGCCUCCUCGCUGGCGCCGGUUGGGCAACAUUCCGAGGGGACCGUCCCCUCGGUAAUGGCGAAUGGGACCCA [G11C C36U] belongs 0.136; to GGCCGGCAUGGUCCCAGCCUCCUCGCUGGCGCCCGCUGGGCAACCUUCCGAGGGGACCGUCCCCUCGGUAAUGGCGAAUGGGACCCA [G34C A45C], 0.107. For GGCCCGCAUGGUCCCAGCCUCCUCGCUGGCGGCGGCUGGGCAACAUUCCGAGGGGACCGUCCCCUCGGUAAUGGCGAAUGGGACCCA [G5C C32G], the self-cleavage came out at 0. As for GGCCGGCAUGGUCCAAGCCUCCUCGGUGGCGCCGGCUGGGCAACAUUCCGAGGGGACCGUCCCCUCGGUAAUGGCGAAUGGGACCCA [C15A C26G], the figure is 0.415; as for GGCCGGCAUGGUCCCAGCCUCCUCGCUGGCGCCGGCUGGGCACCAUUCCGAGGGGACCAUCCCCUCGGUAAUGGCGAAUGGGACCCA [A43C G59A], 0.441.

Consider GGCCGGCAGGGUCCCAGCCUCCUCGCUGGCGCCGGUUGGGCAACAUUCCGAGGGGACCGUCCCCUCGGUAAUGGCGAAUGGGACCCA [U9G C36U], for which the self-cleavage stood at 0.864. In the case of GGCCGGCAUGGUCCCAGCCUGCUCGCGGGCGCCGGCUGGGCAACAUUCCGAGGGGACCGUCCCCUCGGUAAUGGCGAAUGGGACCCA [C21G U27G], the self-cleavage was 0. In the case of GGCCGGCAUGGUCCCAGCCUUCUCGCUGGCGCCGGCUGGGCAACAUUCCGAGGGGUCCGUCCCCUCGGUAAUGGCGAAUGGGACCCA [C21U A56U], the self-cleavage was 0.3.

As to GGCCCGCAGGGUCCCAGCCUCCUCGCUGGCGCCGGCUGGGCAACAUUCCGAGGGGACCGUCCCCUCGGUAAUGGCGAAUGGGACCCA [G5C U9G], the self-cleavage is 0.111. As for GGCCGGCAUGGUCCCAGCCUCCUCGCUGGCGCCGGGUAGGCAACAUUCCGAGGGGACCGUCCCCUCGGUAAUGGCGAAUGGGACCCA [C36G G38A], the figure is 0.143; as for CGCCGGCAUGGUCCCAGCCUCCUCGCUGGCGCCGGCUGGGCAACAUUCCGAGGGGACCGUCCCCUCGGUUAUGGCGAAUGGGACCCA [G1C A70U], 0.115; as for GGCCGGCAUGGUCCCAGUCUCCUCGCUGGCGCCGGCUGGGCAACAUUCCGAGGGGACCGUCCCCUCGGUAAUGGCGAAUGAGACCCA [C18U G81A], 0.265.
